Like-named read-outs stand apart in the source and are kept apart here.
T1: human IL2RA expressed on CHO-S cells (CHO-S-hIL2RA cells) (human, UniProt P01589 22-272)
T1 sequence: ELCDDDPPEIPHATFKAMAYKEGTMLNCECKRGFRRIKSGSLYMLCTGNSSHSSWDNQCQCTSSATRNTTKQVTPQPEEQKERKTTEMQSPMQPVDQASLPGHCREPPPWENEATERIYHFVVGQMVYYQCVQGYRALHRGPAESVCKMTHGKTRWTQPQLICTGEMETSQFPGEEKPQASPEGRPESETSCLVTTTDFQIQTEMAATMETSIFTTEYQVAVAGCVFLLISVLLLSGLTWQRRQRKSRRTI

T2: monkey (Macaca fascicularis) IL2RA expressed on CHO-S cells (CHO-S-fasIL2RA cells) (monkey (Macaca fascicularis), UniProt Q5MNY4 22-272)
T2 chain: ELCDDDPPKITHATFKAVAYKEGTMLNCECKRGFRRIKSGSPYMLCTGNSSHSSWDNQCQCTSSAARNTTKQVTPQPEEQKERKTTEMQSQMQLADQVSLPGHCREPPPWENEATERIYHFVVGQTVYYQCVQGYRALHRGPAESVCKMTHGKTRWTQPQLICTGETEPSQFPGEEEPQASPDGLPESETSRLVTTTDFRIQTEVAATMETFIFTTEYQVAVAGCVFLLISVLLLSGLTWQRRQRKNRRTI

T3: His-tagged human IL2RA protein (hIL2RA-his, ACROBiosystems Inc., Cat #: ILA-H52H9) (human, UniProt P01589 22-213, limits assumed)
T3 construct: Bought protein; the soluble protein is most likely only an extracellular part of it; not shown: His tag
T3 sequence: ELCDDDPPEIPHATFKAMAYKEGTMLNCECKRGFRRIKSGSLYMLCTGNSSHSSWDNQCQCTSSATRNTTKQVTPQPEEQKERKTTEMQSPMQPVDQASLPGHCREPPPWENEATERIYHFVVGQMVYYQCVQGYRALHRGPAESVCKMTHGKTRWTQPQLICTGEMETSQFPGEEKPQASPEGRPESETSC

T4: His-tagged recombinant monkey (Cynomolgus monkey, Macaca fascicularis) IL2RA protein (cynoIL2RA-his, Sino … (Cynomolgus monkey (Macaca fascicularis), UniProt Q5MNY4 22-213 (rhesus entry)))
T4 construct: Bought protein; the soluble protein is most likely only an extracellular part of it; not shown: His tag
T4 chain: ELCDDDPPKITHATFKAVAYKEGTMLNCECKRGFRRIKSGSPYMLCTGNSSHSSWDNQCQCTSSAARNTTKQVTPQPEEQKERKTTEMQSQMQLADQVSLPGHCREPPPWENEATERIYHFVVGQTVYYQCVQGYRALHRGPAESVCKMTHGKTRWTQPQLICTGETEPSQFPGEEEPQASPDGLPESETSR


Assays:
[1] = target: T1, human IL2RA expressed on CHO-S cells …; experiment: flow cytometry on CHO-S cells expressing the target, anti-human IgG Fc secondary
Experimental: (§1) CHO-S-hIL2RA cells or CHO-S-fasIL2RA cells were plated in a 96-well plate at a density of 2×10⁵ cells/well. Serially diluted purified anti-IL2RA antibodies (maximum concentration: 9 μg/mL, 2-fold dilutions, 11 gradients) were added to each well and were incubated at 4° C. for 30 minutes.
(§2) The cells were collected, and the mean fluorescence intensity (MFI) was determined. A fitting curve was obtained using Log(antibody concentration (μg/mL)) as the X-axis and mean MFI as the Y-axis.

[2] = target: T2, monkey (Macaca fascicularis) IL2RA …; experiment: as above
Experimental: as §1, §2

[3] = target: T3, His-tagged human IL2RA protein …; experiment: SPR (Biacore 8K), antibody captured on Protein A chip, His-tagged antigen as analyte, 1:1 fit;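 further: antibodies captured at about 150 RU, antigen injected as a titration series, dissociation phase recorded over 400 s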
Experimental: (§3) Purified anti-IL2RA antibodies were diluted to 2 g/mL and then injected into the Biacore™ 8K biosensor at 10 L/min for about 50 seconds to achieve a desired protein density (e.g., about 150 response units (RU)). […] Dissociation was monitored for 400 seconds. The chip was regenerated after the last injection of each titration with glycine (pH 2.0, 30 L/min for 30 seconds).

[4] = target: T4, His-tagged recombinant monkey …; experiment: as above
Experimental: as §3

[5] = target: T4, His-tagged recombinant monkey …; experiment: SPR (Biacore 8K), antibody captured on Protein A chip, His-tagged antigen as analyte; "-" means no binding
Experimental: as §3

[6] = target: T1, human IL2RA expressed on CHO-S cells …; experiment: flow cytometry blocking assay on CHO-S-hIL2RA cells; blocked ligand: biotinylated human IL-2 at 2.5 µg/mL, detected with APC streptavidin
Experimental: (§4) CHO-S-hIL2RA cells were seeded in a 96-well plate (cell density 2×10⁵ cells/well) and incubated at 37° C. overnight. […] The above 96-well plate was incubated at 4° C. for 20 minutes.
(§5) The mean fluorescence intensity (MFI) was determined. A fitting curve was obtained using Log(antibody concentration (μg/mL)) or antibody concentration (μg/mL) as the X-axis and Log(mean MFI) or MFI as the Y-axis.

[7] = target: T1, human IL2RA expressed on CHO-S cells …; experiment: as above; remark: listed apart in the source
Experimental: as §4, §5

Binder	EC50 [1] [µg/mL]	EC50 [2] [µg/mL]	Kd [3] [nM]	koff [3] [s⁻¹]	kon [3] [M⁻¹ s⁻¹]	Kd [4] [nM]	koff [4] [s⁻¹]	kon [4] [M⁻¹ s⁻¹]	IC50 (read off the curve) [6] [µg/mL]	IC50 (read off the curve) [7] [µg/mL]	binding result [5]
RG6292 analog (antibody, V domains shown, RG6292 is described as a human IgG1 monoclonal antibody) VH: QVQLVQSGAEVKKPGASVKVSCKASGYTFTSYYMHWVRQAPGQGLEWMGIINPSGGSTSYAQKFQGRVTMTRDTSTSTVYMELSSLRSEDTAVYYCARGGAEYIPAEYFQHWGQGTLVTVSS VL: EIVMTQSPATLSLSPGERATLSCRASQSVSSYLAWYQQKPGQAPRLLIYDASNRATGIPARFSGSGSGTDFTLTISSLEPEDFAVYYCQQRPFLPTFGGGTKVEIK	–	–	43.8	0.00203	46300	–	–	–	–	–	no binding (tested: up to 200 nM antigen)
anti-IL2RA antibody 11C12 (antibody, human IgG1, V domains shown, also called 1IC12) VH: QVQLVQSGGGLVQPGGSLRLSCSASGLTFSSYGMHWVRQAPGKGLDYVSGITNNGGRTEYADSVKGRFTISRDNSKNTLYLQMSSLRTEDTAVYYCVKEDWNGQYYYYAMDVWGQGTTVTVSS VL: not shown	0.083	0.091	8.9	0.00268	301000	118	0.0343	291000	–	–	–
anti-IL2RA antibody 11C3 (antibody, human IgG1, V domains shown) VH: QVQLVQSGAEVKKPGASVKVSCKASGYTFNSYYIHWVRQAPGQGLEWLGIINPTGGRTIYAQKFQGRVTMTRDTSTTTVDMELSSLRSEDTAVYYCARVPGYCKDTSCQDFYYYYGMDVWGQGSTVTVSS VL: not shown	0.099	0.111	0.266	9.42e-05	354000	0.528	0.000166	314000	–	–	–
Daclizumab analog (antibody, V domains shown, Daclizumab is described as a humanized monoclonal antibody) VH: QVQLVQSGAEVKKPGSSVKVSCKASGYTFTSYRMHWVRQAPGQGLEWIGYINPSTGYTEYNQKFKDKATITADESTNTAYMELSSLRSEDTAVYVCARGGGVFDYWGQGTLVTVSS VL: DIQMTQSPSTLSASVGDRVTITCSASSSISYMHWYQQKPGKAPKLLIYTTSNLASGVPARFSGSGSGTEFTLTISSLQPDDFATYYCHQRSTYPLTFGQGTKVEVK	–	–	–	–	–	–	–	–	~4	~0.6	–

More lines, in order of falling Kd [3], values ahead:

EC50 [1] [µg/mL]	EC50 [2] [µg/mL]	Kd [3] [nM]	koff [3] [s⁻¹]	kon [3] [M⁻¹ s⁻¹]	Kd [4] [nM]	koff [4] [s⁻¹]	kon [4] [M⁻¹ s⁻¹]	IC50 (read off the curve) [6] [µg/mL]	IC50 (read off the curve) [7] [µg/mL]	Binder	binding result [5]
0.411	0.435	6.35	0.0143	2.25e+06	24.6	0.0258	1.05e+06	–	–	anti-IL2RA antibody 7B5 (antibody, V domains shown) VH: EVQLQQWGAGLLKPSETLSLTCAVYGGSFSGYYWNWIRQPPGKGLEWIGESDHSGSTHFNPSLKSRVTISLDTSKNQFSLKLNSVTAADTAVYFCARAPDYGDFDHWGQGILVTVSS VL: DIQMTQSPDSLAVSLGERATINCRSSQSVLHSSTNKRYLAWYQQKPRQPPKLLIYWTSTRESGVPDRFSGSGSGTDFTLTISSLQAEDVAVYFCQQYYSTPYTFGQGTKLEIK	–
0.47	0.466	5.14	0.00043	83800	271	0.0193	71400	–	–	anti-IL2RA antibody 5D9 (antibody, V domains shown, Variable regions were cloned onto a human IgG constant region; also called 5D9-IgG1) VH: EVQLVESGGGLVQPGGSLRLSCAASGFTVSSNYMSWVRQTPGKGLELVSFIYSGGITSYADSVRGRFTISRDNSKNTLYLQMNSLRAEDTAVYYCARDDYSNYFDYWGQGTLVTVSS VL: DIQMTQSPSSVSASVGDRVTITCRASQGISNWLAWYQQKPGKAPKLLIFAASSLQSGVPSRFSGSGSGTDFTLTISSLQPEDFATYYCQQAKSFPITFGQGTRLEIK	–
0.093	0.088	3.72	0.000962	258000	53.1	0.0116	218000	–	–	anti-IL2RA antibody 14C2 (antibody, human IgG1, V domains shown) VH: QVQLVQSGGGVVQPGRSLRLSCAASGFTFSTYGMHWVRQAPGKGLEWVAVISYDGSDKIYADSVKGRFTISRDNSKNTLFLQMNSLRAEDTAVYYCATGPMENYYYYNMDVWGLGTTVTVSS VL: not shown	–
0.052	0.039	1.27	0.000235	185000	2.53	0.000901	356000	–	–	anti-IL2RA antibody 11D2 (antibody, human IgG1, V domains shown) VH: QVQLVQSGGGVVQPGRSLRLSCAASGFTFTNYAIHWVRQAPGKGLEWVAVIWSDGDNKYYADSVKGRFTISRDNSKNTLYLQMNSLRAEDTAVYYCARTPWYCTSTNCYTGYYYYGMDVWGQGTTVTVSS VL: not shown	–
0.326	0.275	0.655	2.11e-05	32300	11.8	0.000447	37800	–	–	anti-IL2RA antibody 13F9 (antibody, human IgG1, V domains shown) VH: QVQLVQSGAEVKRPGASVKVSCKASGYTFTTYAIHWVRQAPGQRLEWMGWINADNGYTKYSQNFQGRVTITRDTSASTAYMDLSTLRSEDTALYYCARTPRYCTSTSCSTGYYYYGMDVWGQGTTVTVSS VL: not shown	–
